Measured values as given in article PMC5880795, “Cloning and expression of a novel α-1,3-arabinofuranosidase from Penicillium oxalicum sp. 68” (AMB Express, 2018).

Test system: T1, O=[N+]([O-])c1ccc(O[C@@H]2O[C@@H](CO)[C@H](O)[C@H]2O)cc1
T1 construct: signal peptide (predicted residues 1-30) removed; pPIC9K SnaBI/EcoRI, secreted from Pichia pastoris GS115; no tag mentioned
Assay: purified protein
Assay type: biochemical, Penicillium oxalicum
Conditions: 20 mM Na-acetate pH 4.5, 37 °C (standard assay; kinetic conditions not restated)

Chain of PoAbf62A (Penicillium oxalicum 114-2) (chain, as listed by the source): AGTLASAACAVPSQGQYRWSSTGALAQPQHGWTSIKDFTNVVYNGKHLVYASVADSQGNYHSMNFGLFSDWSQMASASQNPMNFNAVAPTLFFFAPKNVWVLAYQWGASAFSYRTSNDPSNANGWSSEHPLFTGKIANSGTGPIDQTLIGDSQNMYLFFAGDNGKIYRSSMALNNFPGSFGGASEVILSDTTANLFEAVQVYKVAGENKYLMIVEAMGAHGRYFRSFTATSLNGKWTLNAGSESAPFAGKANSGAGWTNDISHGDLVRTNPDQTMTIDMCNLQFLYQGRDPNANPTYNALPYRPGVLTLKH

## PoAbf62A (Penicillium oxalicum 114-2)
  Km: 1360 ± 120 µM
  kcat: 0.27 ± 0.01 s⁻¹
